The text below walks through data of publication doi:10.1101/2024.09.12.612615.

This data set deals with Asp64 (UniProt position 64, EGCPTDSIKVA). In words: kinetics. As to conditions: 28 °C; reduced [4Fe-4S] cluster undergoing air oxidation.

As for “[4Fe-4S] ferredoxin (BtFd) (Bacillus thermoproteolyticus)”, the pKa result is “between a pH of 6.0 to 7.0”.
